Measurements from the supplement of paper PMC9170038.

Test system: MS2 coat protein
Test: apparent KD of MS2 coat protein; designed switch direction (-1 OFF switch, 1 ON switch): -1; higher = weaker reporter binding
How it was run: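 Designed RNA switches were transcribed on Illumina chips by stalled E. coli RNA polymerase and titrated with SNAP-549-labelled MS2 coat protein from 0.7 or 1.5 nM, doubling to 3 µM. Step length ran from 0.8–1.5 h at the lowest concentration to 10–20 min at the highest. The apparent KD is the median over clusters for each design, from curve-fitted normalised cluster fluorescence.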

[1] = input ligand: microRNA oligo, concentration not stated
[2] = Eterna round: R95, input ligand: FMN 200 uM
[3] = Eterna round: R95, input ligand: microRNA oligo, concentration not stated
[4] = Eterna round: R95, input ligand: none

Sequence	apparent KD of MS2 coat protein [3] [nM]	apparent KD of MS2 coat protein (input ligand: FMN 200 uM) [nM]	apparent KD of MS2 coat protein (input ligand: none) [nM]	also measured
GAUAGAGAGCAGGAUAUCAUAGAAAUGUAUGAAUGAGAAGGGCUCACAUGAGGAUCACCCAUGUGGUCCUAGAU [JL Dibiri mod 19] (Eterna round: R96, puzzle: Exclusion 6)				apparent KD of MS2 coat protein [1]: 23.4 nM
GAUAGAGAGCAGGAUAUCAUAGAAAUGUAUGAAUGAGAAGGGCUCACAUGAGGAUCACCCAUGUGGUCCUAGAU [JL Dibiri mod 19] (puzzle: Exclusion 6)	22.4			apparent KD of MS2 coat protein [2]: 135 nM; apparent KD of MS2 coat protein [4]: 21.1 nM
GAUAGAGAGCAGGAUAUCUUGGGUAAGUGUUGUAGAGAAGGGCUCACAUGAGGAUCACCCAUGUGGUCCAAGAU [JL Dibiri mod 07] (puzzle: Exclusion 6)	16.9			apparent KD of MS2 coat protein [2]: 35.2 nM; apparent KD of MS2 coat protein [4]: 17.2 nM
GAUAGAGCAGGAUAUUCAAUAUAUCACAUGAGGAUCACCCAUGUCCAGCGAAAGCUGGAGGGAGAAGGGCUCUAUC [Mat - Exclusion 5 - Eli mod - D99] (puzzle: Exclusion 5)	366			apparent KD of MS2 coat protein [2]: 77.6 nM; apparent KD of MS2 coat protein [4]: 262 nM
GAUCAACAAUCGAGCGGAUACAUGAGGAUCACCCAUGUCCGUAGUCGGGUAAAUAACAAGCUUUUUUCGCCGUCCCU [Eternabot (Original) Solution 42] (Eterna round: R97, puzzle: Sensor, turn-off variant 1)		15.4	14.9	
GAUCAACAUGAGGAUCACCCAUGUCAGGAUAUCUAUCAAGUGAGCCUAUCACAAUUUGGGAGAAGGGACCUAAU [Eternabot (L2) Solution 51] (Eterna round: R97, puzzle: Exclusion 1)		35.1	35.8	
GAUCAUGCAGGAUAUACAGUAACCAUGAAAACAUGGUUGCUACAUGAGGAUCACCCAUGUAGAAGGGCAUGAUC [Omei Ex2 A2] (Eterna round: R97, puzzle: Exclusion 2)		17.9	16.9	
GAUCAUGCAGGAUAUACAUGGAACAUUAAAUCAUGAAUUCUACAUGAGGAUCACCCAUGUAGAAGGGCAUGAUC [Omei Ex2 A17] (Eterna round: R97, puzzle: Exclusion 2)		169	72.1	
GAUCAUGCAGGAUAUACAUUAACCAUGAAAACAUGGUUGUCACAUGAGGAUCACCCAUGUAGAAGGGCAUGAUC [Omei Ex2 A6] (Eterna round: R97, puzzle: Exclusion 2)		37.2	23.5	
GAUCCACAUGAGGAUCACCCAUGUGAGGAUAUGAUACUAUGUACUUCGGUACAUAGUAUCAGAAGGCAUAUUGA [Ex1-3: 46] (puzzle: Exclusion 1)	36.3			
GAUCCACAUGAGGAUCACCCAUGUGAGGAUAUGUCCAUAUUCGGCAAAUCGGAUAUGGACAGAAGGCACACCGG [JR_Exclusion1_Sub012] (puzzle: Exclusion 1)	104			
GAUCCGUUAGGAUAUACAGGAUUCACGCCUGAGUGAAUGUAGUAGAAGGAACAUGAGGAUCACCCAUGUGGUAU [Eternabot (L1) Solution 85] (Eterna round: R97, puzzle: Exclusion 4)		83.2	40.5	
GAUCCUUAAGUCAGGAUAUCAAGCAAACUCUAAAUUGAGAAGGGACAUGAGGAUCACCCAUGUCACCGAAAUAA [Zabema] (puzzle: Brourd's mod of Exclusion 4)	13			
GAUCCUUCUGUUAGGAUAUGCUUCGGGCUUCCGCUGCAGAAGGAACAUGAGGAUCACCCAUGUCAAAUAAAAUC [JL-BMX4-4.38 ViennaUCT mod] (Eterna round: R97, puzzle: Brourd's mod of Exclusion 4)		48.5	17.8	
GAUCCUUUGACGGACGUCUCGAAACAUGAGGAUCACCCAUGUGAGGAUAUCUCCGAGAGGUCGGCAGAGAAGGCACAUGAACAA [MOD3 Eternabot solution 19 score 84.66] (Eterna round: R96, puzzle: Exclusion NG 3)		123	19.8	apparent KD of MS2 coat protein [1]: 16.5 nM
GAUCUACAUGAGGAUCACCCAUGUGAGGAUAUUUAGACCAACGCUCUAGCUGUUGAUGGAAGAAGGCACCACCG [Eternabot (L2) Solution 56] (Eterna round: R97, puzzle: Exclusion 1)		25.4	26.2	
GAUCUAGGUGUCAGGAUAUGUAGCUAGGUAAGCAGACAGAAGGGACAUGAGGAUCACCCAUGUCGCAAAUUAAU [Gezadi] (Eterna round: R97, puzzle: Brourd's mod of Exclusion 4)		86	18.5	
GAUCUGACAGGAUAUACAUGAGGAUCACCCAUGUGCGUGCUAGCGAAAGCUAGCGCAGGUAGAAGGGUCAGAUC [Ex3 dot plot directed v4] (puzzle: Exclusion 3)	11.3			apparent KD of MS2 coat protein [2]: 14.4 nM; apparent KD of MS2 coat protein [4]: 12.9 nM
GAUCUGAUAGGAUAUACAUGAGGAUCACCCAUGUGCGAGCUAGCGAAAGCUAGCUCAGGUAGAAGGGUCAGAUC [Ex3 dot plot directed v2] (puzzle: Exclusion 3)	11.7			
GAUCUGCAGCAGGAUAUGCUCUCGGAAACGAGCGCAGAAGGGCUGACAUGAGGAUCACCCAUGUAAUAAUGGCC [EX6 A.24] (Eterna round: R97, puzzle: Exclusion 6)		89.7	44.2	
GAUGAGGUAGGAUAUACGAGAAGAUAGGGUAGAGAGAGAACACAUGAGGAUCACCCAUGUAGAAGGACCAGUAG [Mat - Exclusion 2 - Mod of my Tesla design - D74] (puzzle: Exclusion 2)	21.1			apparent KD of MS2 coat protein [2]: 48.9 nM; apparent KD of MS2 coat protein [4]: 21.4 nM
GAUGUACAUGAGGAUCACCCAUGUCAGGAUAUUAGGCGCCCUCAUAGCAGGGCCAUGAUGAGAAGGGACAGUAC [Eternabot (L2) Solution 33] (Eterna round: R97, puzzle: Exclusion 1)		67.6	66.4	
GAUGUUCGAGUUAGGAUAUGAAUCCAUACCGGACAUCAGAAGGAACUUGAGGAUCACCCAAGUGGGAAAGAAAU [Orzavera] (Eterna round: R97, puzzle: Brourd's mod of Exclusion 4)		26.3	23.5	
GAUUAACAUGAGGAUCACCCAUGUGAGGAUAUGGACUUGCCCACUUACCCAUUAGAGUCUAGAAGGCGCAUCUC [1986#2\9] (Eterna round: R97, puzzle: Exclusion 1)		25.7	25.3	
